{"source": "patent US20150276749A1", "about": "(KONICA MINOLTA, published 2015)", "key": {"[1]": {"target": "T1, soluble-type human DSG3-mouse IgG2aFc fusion protein (human; mouse, UniProt P32926 50-616)", "T1 construct": "also called human desmoglein 3; desmoglein 3 standard; not shown: mouse IgG2a Fc, printed 'mouse IgG2aFc' and 'mouse IgG2 constant region'", "T1 sequence": "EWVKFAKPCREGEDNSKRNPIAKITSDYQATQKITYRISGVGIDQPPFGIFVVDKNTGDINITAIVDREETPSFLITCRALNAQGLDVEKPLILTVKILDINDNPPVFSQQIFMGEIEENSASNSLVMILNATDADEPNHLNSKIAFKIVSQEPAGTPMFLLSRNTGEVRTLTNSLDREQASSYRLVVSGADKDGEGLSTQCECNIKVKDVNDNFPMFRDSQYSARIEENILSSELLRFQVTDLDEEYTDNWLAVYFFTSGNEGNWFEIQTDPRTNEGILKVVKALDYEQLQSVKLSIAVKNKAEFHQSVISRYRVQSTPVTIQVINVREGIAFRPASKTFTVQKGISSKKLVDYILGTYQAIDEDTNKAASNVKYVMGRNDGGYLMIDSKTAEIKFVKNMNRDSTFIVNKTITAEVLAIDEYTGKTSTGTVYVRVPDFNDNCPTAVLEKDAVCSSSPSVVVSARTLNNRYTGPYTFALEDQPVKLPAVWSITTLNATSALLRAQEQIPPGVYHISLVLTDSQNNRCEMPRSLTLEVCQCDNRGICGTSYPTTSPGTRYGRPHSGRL", "test": "sandwich ELISA, luminescence over blank; immobilized DF151, detection DF151; antigen 1 pg/mL", "description": "(§1) Subsequently, the antigen solutions having the above-described concentrations were each added to the plate in an amount of 50 μL/well, and the plate was incubated at room temperature for 1 hour. Then, the antigen solution was removed, and the plate was washed with 0.05% Tween 20-PBS three times. Thereafter, the 1-μg/mL biotinylated antibody solution was added in an amount of 50 μL/well, and the plate was incubated at room temperature for 1 hour.\n(§2) Then, after removing the streptavidin-HRP solution and washing the plate with 0.05% Tween 20-PBS three times, a substrate solution (SuperSignal ELISA Femto Maximum Sensitivity Substrate (registered trademark); Pierce Biotechnology, Inc.) was added in an amount of 100 μL/well. One minute thereafter, the luminescence intensity was measured using a luminometer, Fluoroskan Ascent FL (trade name, Thermo Electron Corporation).\n(§3) The numerical values shown in Table 1 represent the minimum values of the antigen solution concentration having an S/N ratio of higher than 2 (hereinafter, referred to as “detection limit concentration”) and the unit of the numerical values is pg/mL. The S/N ratio was determined by dividing the luminescence intensity at the respective antigen solution concentrations ([…]) by the luminescence intensity of an antigen-free blank antigen solution (0 μg/mL)."}, "[2]": {"target": "T1, soluble-type human DSG3-mouse IgG2aFc …", "test": "sandwich ELISA, luminescence over blank; immobilized DF151, detection MAB1720; antigen 5000 pg/mL", "description": "as §1, §2, §3"}, "[3]": {"target": "T1, soluble-type human DSG3-mouse IgG2aFc …", "test": "sandwich ELISA, luminescence over blank; immobilized DF151, detection DF151; antigen 5000 pg/mL", "description": "as §1, §2, §3"}, "[4]": {"target": "T1, soluble-type human DSG3-mouse IgG2aFc …", "test": "sandwich ELISA, luminescence over blank; immobilized DF151, detection MAB1720; antigen 1 pg/mL", "description": "as §1, §2\n(§4) The numerical values shown in Table 1 represent the minimum values of the antigen solution concentration having an S/N ratio of higher than 2 (hereinafter, referred to as “detection limit concentration”) and the unit of the numerical values is pg/mL. […]"}, "[5]": {"target": "T1, soluble-type human DSG3-mouse IgG2aFc …", "test": "sandwich ELISA, luminescence over blank; immobilized DF151, detection MAB1720; antigen 10 pg/mL", "description": "as §1, §2, §4"}, "[6]": {"target": "T1, soluble-type human DSG3-mouse IgG2aFc …", "test": "SPFS sandwich; immobilized DF151, detection MAB1720; antigen 1,000 pg/mL (µg/mL in the source)", "description": "(§5) Once again, a Tris-buffered saline (TBS) containing 0.05% by mass of Tween 20 was fed and circulated in the flow path for 10 minutes to wash the flow path. Then, with the flow path being filled with PBS buffer (pH 7.4), the assay area was irradiated with laser light (640 nm, 40 μW) from the back side of the metal thin films, and the fluorescence intensity was measured using a photomultiplier tube (PMT) arranged above the assay area. The thus measured value was defined as “signal” (S) at a desmoglein 3 concentration of 100 μg/mL.\n(§6) On another front, the fluorescence intensity was also measured by the same procedures as described above, except that a PBS solution containing no desmoglein 3 (0 μg/mL) was fed in place of the PBS solution containing 100 μg/mL of desmoglein 3. The thus measured value was defined as “noise” (N).\n(§7) Further, the fluorescence intensity was measured by the same procedures as described above, except that the desmoglein 3 concentration of the fed PBS solution was changed to 10,000 μg/mL, 5,000 μg/mL, 1,000 μg/mL, 200 μg/mL, 50 μg/mL, 10 μg/mL, 3.16 μg/mL, 1 μg/mL, 0.316 μg/mL, 0.1 μg/mL and 0.031 μg/mL. The thus measured values were each defined as “signal” (S) at the respective concentrations."}, "[7]": {"target": "T1, soluble-type human DSG3-mouse IgG2aFc …", "test": "sandwich ELISA, luminescence over blank; immobilized DF151, detection D219-3; antigen 40 pg/mL", "description": "as §1, §2, §3"}, "[8]": {"target": "T1, soluble-type human DSG3-mouse IgG2aFc …", "test": "sandwich ELISA, luminescence over blank; immobilized DF151, detection D219-3; antigen 200 pg/mL", "description": "as §1, §2, §3"}, "[9]": {"target": "T1, soluble-type human DSG3-mouse IgG2aFc …", "test": "sandwich ELISA, luminescence over blank; immobilized DF151, detection DF151; antigen 40 pg/mL", "description": "as §1, §2, §3"}, "[10]": {"target": "T1, soluble-type human DSG3-mouse IgG2aFc …", "test": "sandwich ELISA, luminescence over blank; immobilized DF151, detection D219-3; antigen 10 pg/mL", "description": "as §1, §2, §3"}, "[11]": {"target": "T1, soluble-type human DSG3-mouse IgG2aFc …", "test": "SPFS sandwich; immobilized DF151, detection D219-3; antigen 1,000 pg/mL (µg/mL in the source)", "description": "as §5, §6, §7"}}, "data": [{"binder": "DF151 (DF151[I] antibody) (antibody, mouse IgG2b, kappa, V domains shown, Complete antibody; Biotinylated as detection antibody in ELISA; labeled with Alexa Fluor 647 as detection antibody in SPFS; also called DF151 antibody) VH: EVQLQQSGPELVKPGASVKISCKASGYSFTAYYMHWVKQSPEKCLEWIGQINPSTGGTTYNQKFKAKATLTVDKSSSTAYMQLKSLTSEDSAVYYCARWGDSWGQGTTLTVSS VL: DIVLTQSPASLAVSLGQSVTISCRASESVEYYGTSLMQWYQQKPGQPPKLLIYGASDVESGVPARFSGSGSGTDFSLNIHPVEEDDIAMYFCQQSRKVPYTFGSGTKLEIKR", "values": [{"measurement": "S/N ratio", "setting": "[1]", "value": 0.9}, {"measurement": "S/N ratio", "setting": "[2]", "value": 17.7}, {"measurement": "S/N ratio", "setting": "[3]", "value": 11.1}, {"measurement": "S/N ratio", "setting": "[4]", "value": 1}, {"measurement": "S/N ratio", "setting": "[5]", "value": 1.1}, {"measurement": "S/N ratio", "setting": "[6]", "value": 60.8}, {"measurement": "S/N ratio", "setting": "[7]", "value": 0.8}, {"measurement": "S/N ratio", "setting": "[8]", "value": 1}, {"measurement": "S/N ratio", "setting": "[9]", "value": 0.9}, {"measurement": "S/N ratio", "setting": "[10]", "value": 0.9}, {"measurement": "S/N ratio", "setting": "[11]", "value": 24.4}]}]}
